This test has as its target T1, Staphylococcal enterotoxin B (Staphylococcus aureus, strain , UniProt P01552).
T1 construct: source: bought: Toxin Technologies
The test is described as follows: SPR. The note with it: both partners purified.

T1 sequence (P01552 28-266): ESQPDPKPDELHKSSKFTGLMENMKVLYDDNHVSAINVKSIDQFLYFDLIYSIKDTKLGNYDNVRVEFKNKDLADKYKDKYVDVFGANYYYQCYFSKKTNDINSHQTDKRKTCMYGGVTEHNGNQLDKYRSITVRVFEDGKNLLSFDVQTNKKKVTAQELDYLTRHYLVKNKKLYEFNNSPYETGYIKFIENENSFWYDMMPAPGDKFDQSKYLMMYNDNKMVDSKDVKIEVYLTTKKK

B1: hybrid antibody C8A3 (VHH)
VHH: EVQLQASGGGLVQGGDSLRLSCAASGRTFSRAVMGWFRQAPGKEREFVSAISAAPGTAYYAFYADSVRGRFTISRDNAKNAVYLQMNSLKPEDTAVYYCAVDLKMQVAAYMNQRSVDYWGQGTQVTVSS
As usually defined, the Kd is the free concentration of one partner at which half of the binding sites on the other are occupied at equilibrium, for simple one-to-one binding. Low readings indicate tighter binding, high ones weaker binding. Turning to B1, the Kd stood at 2.7 nM.

B2: hybrid construct D1A3 (VHH)
VHH: EVQLQASGGGLVQPGGSLRLACQYSGRTFSRAVMGWFRQSPGKEREFVAAISAAPGTAYYAFYADSVRGRFTTSSDNFKKTAYLQMNGLKPEDTALYYCTEDLKMQVAAYMNQRSVDYWSQGTQVTVSS
B2 gave a Kd of 0.56 nM.

B3: hybrid DAD (VHH)
VHH: EVQLQASGGGLVQPGGSLRLACQYSGREGTTTVGWFRQSPGKEREFVAAISAAPGTAYYAFYADSVRGRFTTSSDNFKKTAYLQMNGLKPEDTALYYCTEDTWNSVVTGTAADWSQGTQVTVSS
In turn, B3 returned a Kd of 20 nM.

B4: hybrid DDA (VHH)
VHH: EVQLQASGGGLVQPGGSLRLACQYSGREGTTTVGWFRQSPGKEREFVAAIRWTDSRTPHTDSRFTTSSDNFKKTAYLQMNGLKPEDTALYYCTEDLKMQVAAYMNQRSVDYWSQGTQVTVSS
Take B4: the binding result is recorded as “no binding”.

B5: hybrid AAD (VHH)
VHH: EVQLVESGGGLVQAGDSLRLSCTASGRTFSRAVMGWFRQAPGKEREFVAAISAAPGTAYYAFYADSVRGRFSISADSAKNTVYLQMNSLKPEDTAVYYCAADTWNSVVTGTAADWGQGTQVTVSS
Take B5: the Kd came to 12 nM.

B6: hybrid ADD (VHH)
VHH: EVQLQASGGGLVQPGGSLRLACQYSGRTFSRAVMGWFRQSPGKEREFVAAIRWTDSRTPHTDSRFTTSSDNFKKTAYLQMNGLKPEDTALYYCTEDTWNSVVTGTAADWSQGTQVTVSS
Turning to B6, the binding result is listed as “no binding”.

B7: hybrid antibody A3C8 (VHH)
VHH: EVQLVESGGGLVQAGDSLRLSCTASGRTLGDYGVAWFRQAPGKEREFVSVISRSTIITDYADSVRGRFSISADSAKNTVYLQMNSLKPEDTAVYYCAVIANPVYATSRNSDDYGHWGQGTQVTVSS
In the case of B7, the binding result is recorded as “no binding”.

B8: hybrid construct A3D1 (VHH)
VHH: EVQLVESGGGLVQAGDSLRLSCTASGREGTTTVGWFRQAPGKEREFVAAIRWTDSRTPHTDSRFSISADSAKNTVYLQMNSLKPEDTAVYYCAADTWNSVVTGTAADWGQGTQVTVSS
On to B8, for which the binding result is “no binding”.
